In paper PMC10197177, “Development of high affinity broadly reactive aptamers for spike protein of multiple SARS-CoV-2 variants†”:

Target: Spike protein, wild-type (Wuhan) (SARS-CoV-2 (wild-type, original Wuhan …, UniProt P0DTC2 14-1213))
Test: ELONA; Tris buffer; […], pH 7.4, room temperature, spike immobilized; […], pH 7.4 ([…]
Details: protein: recombinant; chain copies: 3; label: 3' biotin

Binder: ACGAGCTCGAACGCCCGGAGGAGACGGGGGCAGGGCGTGTTCACTGC (ssDNA) [Oligo30]
- Kd: 245 ± 8 nM

B1: K1 (truncated working aptamer) (ssDNA)
DNA: AATGGATCCACATCTACGAGCTCGAACGCCCGGAGGAGACGGGGGCAGGGCGTGTTCACTGCAGACTTGACGAAGCT
- Kd: 0.066 ± 0.004 nM

B2: M40 (truncated working aptamer) (ssDNA)
DNA: ATCTACGAATTCTCCGCCAAGATAGAGGGTGGGCCGCGGAGAATTCACTGC
- Kd: 0.155 ± 0.026 nM

B3: Oligo14 (ssDNA)
DNA: CCACATCTACGAGCTCGAACGCCCGGAGGAGACGGGGGCAGGGCGTGTTCACTGCAGACTTGA
- Kd: 5.29 ± 0.95 nM
